Assay results: US20250136696A1 (HARBOUR BIOMED SHANGHAI, published 2025)
Changes are numbered by the printed parent chain. Numbers in names are those of the source. One block for each binder: values may come before it.

What was measured:
[1] = target: T1, human B7-H7 on the cell surface (human, UniProt Q9UM44 23-414); assay: flow cytometry, HCC827 cells
T1 construct: whole, on cells; also called hB7-H7; hu B7-H7
T1 sequence (looked up): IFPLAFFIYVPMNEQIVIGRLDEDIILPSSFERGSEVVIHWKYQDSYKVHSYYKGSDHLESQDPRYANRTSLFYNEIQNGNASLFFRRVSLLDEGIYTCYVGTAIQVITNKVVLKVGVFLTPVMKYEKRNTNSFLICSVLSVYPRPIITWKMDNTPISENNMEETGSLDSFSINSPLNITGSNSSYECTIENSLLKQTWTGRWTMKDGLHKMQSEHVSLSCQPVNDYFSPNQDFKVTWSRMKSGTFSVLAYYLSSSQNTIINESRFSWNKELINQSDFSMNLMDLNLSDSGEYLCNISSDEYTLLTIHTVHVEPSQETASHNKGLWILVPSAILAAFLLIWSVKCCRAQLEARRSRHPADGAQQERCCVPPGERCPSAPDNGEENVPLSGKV
Method: (§1) This example was intended to study the in vitro activity of H2L2 monoclonal antibodies against human B7-H7 in binding to human/cynomolgus monkey B7-H7. Since homologous molecules of B7-H7 were not present in mice, the detection was not performed. […] The cells were adjusted to a cell density of 1×10⁶ cells/mL, respectively. The cells were seeded in a 96-well V-bottom plate (Corning, #3894) at 100 μL/well, and the antibody to be tested at 2× final concentration with 3-fold concentration gradient dilution was then added at 100 μL/well. The cells were incubated at 4° C. for 2 hours in the dark. After the incubation, the cells were rinsed twice by adding pre-chilled PBS containing 2% BSA at 100 μl/well, and centrifuged at 500 g at 4° C. for 5 minutes, and the supernatant was discarded. […] The cells were washed twice by adding pre-chilled PBS containing 2% BSA at 100 μL/well, and centrifuged at 500 g at 4° C. for 5 minutes, and the supernatant was discarded. Finally, the cells were resuspended in pre-chilled PBS containing 2% BSA at 200 μL/well, and the fluorescence signal values were read using an ACEA Novocyte3000 flow cytometer.

[2] = target: T1, human B7-H7 on the cell surface; assay: flow cytometry, HEK-293/hu B7-H7 cells
Method: as §1

[3] = target: T2, cynomolgus monkey B7-H7 on the cell surface (cynomolgus monkey); assay: flow cytometry, HEK-293/cyno B7-H7 cells
T2 construct: whole, on cells; also called cyno B7-H7
Method: as §1

[4] = target: T3, biotinylated human B7-H7 protein (Acro Biosystems, B77-H82F5) (human, UniProt Q9UM44 23-344, biotinylated); assay: flow cytometry, blocking of biotinylated human B7-H7 binding to HEK-293/CD28H cells
T3 construct: Bought soluble protein; also called biotin-B7H7 protein
T3 sequence (looked up): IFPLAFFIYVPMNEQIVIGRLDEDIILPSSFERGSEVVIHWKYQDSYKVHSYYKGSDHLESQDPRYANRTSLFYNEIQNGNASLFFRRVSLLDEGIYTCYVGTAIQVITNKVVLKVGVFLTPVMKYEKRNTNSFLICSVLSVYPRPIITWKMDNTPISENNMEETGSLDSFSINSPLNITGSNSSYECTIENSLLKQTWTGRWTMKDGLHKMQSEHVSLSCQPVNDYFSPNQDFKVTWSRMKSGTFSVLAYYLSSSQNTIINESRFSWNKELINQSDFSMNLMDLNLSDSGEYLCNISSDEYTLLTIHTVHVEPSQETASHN
Method: This example was intended to study the in vitro blocking activity of human anti-B7-H7 antibodies against the binding of human B7-H7 to its receptor CD28H. […] The cells were adjusted to a cell density of 1×10⁶ cells/mL. […] The cells were incubated at 4° C. for 1 hour in the dark. […] The cells were rinsed twice by adding pre-chilled PBS containing 2% BSA at 100 μL/well, and were centrifuged at 500 g at 4° C. for 5 minutes, and the supernatant was discarded. A fluorescent secondary antibody (PE Streptavidin, BD, Cat #: 554061, 1:200) was added at 100 μL/well, and the cells were incubated at 4° C. for 30 minutes in the dark. The cells were washed twice by adding pre-chilled PBS at 200 μL/well, and centrifuged at 500 g at 4° C. for 5 minutes, and the supernatant was discarded. Finally, the cells were resuspended in pre-chilled PBS at 200 μL/well, and the fluorescence signal values were read using an ACEA Novocyte3000 flow cytometer. IC50 was calculated.

[5] = target: T3, biotinylated human B7-H7 protein (Acro …); assay: flow cytometry, blocking of biotinylated human B7-H7 binding to CHO-K1/KIR3DL3 cells
Excerpt: This example was intended to study the in vitro blocking activity of human anti-B7-H7 antibodies against the binding of human B7-H7 to its receptor KIR3DL3. A CHO-K1 cell (CHO-K1/KIR3DL3, Harbour BioMed US, Inc.) overexpressing human KIR3DL3 was used in experiments at the cellular level where human B7-H7/human KIR3DL3 binding was blocked. Briefly, the CHO-K1/KIR3DL3 cells were digested and resuspended in PBS containing 2% BSA. The cells were adjusted to a cell density of 1×10⁶ cells/mL. […] The cells were incubated at 4° C. for 1 hour in the dark. […] The cells were rinsed twice by adding pre-chilled PBS containing 2% BSA at 100 μL/well, and were centrifuged at 500 g at 4° C. for 5 minutes, and the supernatant was discarded. A fluorescent secondary antibody (PE Streptavidin, BD, Cat #: 554061, 1:200) was added at 100 μL/well, and the cells were incubated at 4° C. for 30 minutes in the dark. The cells were washed twice by adding pre-chilled PBS at 200 µL/well, and centrifuged at 500 g at 4° C. for 5 minutes, and the supernatant was discarded. Finally, the cells were resuspended in pre-chilled PBS at 200 μL/well, and the fluorescence signal values were read using an ACEA Novocyte3000 flow cytometer. IC50 was calculated.

[6] = target: T4, human B7-H7 recombinant protein (human, UniProt Q9UM44 23-344); assay: BLI (Octet), antibody captured on AHC sensor, human B7-H7 in solution, 1:1 global fit
T4 construct: also called human B7-H7 protein
T4 sequence (looked up): T3 sequence (looked up)
Method: The binding kinetics between antigen and antibody was analyzed using an Octet Red 96e (Fortebio) molecular interaction analyzer by biolayer interferometry (BLI) technology.
For determining the affinity of antibodies for antigens, the rotary speed of the sensor was set at 1000 rpm. AHC sensors (Fortebio, #18-5060) placed in one column were first equilibrated in a test buffer for 10 minutes, and then used to capture the anti-B7-H7 antibodies at a capture height of 0.7 nm; and after being equilibrated in the buffer for 120 s, the AHC sensors bound to human B7-H7 (concentrations: 50-3.125 nM and 0 nM) with 2-fold gradient dilution for 180 s and dissociated for 300 s. The AHC sensors were finally regenerated by immersing in a 10 mM glycine-hydrochloric acid solution with pH 1.5 to elute the protein bound to the sensors.
For data analysis using Octet Data Analysis software (Fortebio, version 11.0), 0 nM well was used as the reference well, reference subtraction was performed, “1:1 Global fitting” method was selected for data fitting, the kinetic parameters of the binding of the antigen to the antigen-binding protein were calculated, and the kₒₙ (1/Ms) value, kdis (1/s) value and KD (M) value were obtained.

[7] = target: T3, biotinylated human B7-H7 protein (Acro …); assay: BLI epitope competition on SA-captured biotinylated B7-H7; competitor (first antibody) PR003249
Method: Epitope competition experiments were performed on the anti-B7-H7 antibodies using the ForteBio Octet Red96e platform with the same experimental buffer as described above. […] After being equilibrated in a buffer for 120 s, the sensors were immersed in various antibodies diluted to 100 nM for 240 s, and the final signal of the antibody binding to B7-H7 was recorded as the 100% signal for that antibody. Second step, epitope competition experiment: B7-H7 was captured using SA sensors at a capture height of 0.25 nm. The sensors were immersed in a first antibody (concentration: 100 nM) for 240 s, then the SA sensors were immersed in a mixture of the first antibody and a second antibody (final concentration of both antibodies: 100 nM) for 240 s, and the difference in signals before and after immersing the sensors in the mixture of the two antibodies was recorded as the signal for that antibody as the second antibody. The inhibition rate was calculated by the following equation, […]

[8] = target: T1, human B7-H7 on the cell surface; assay: flow cytometry on LS180 cells, expression supernatant diluted 1:1, 1:10, 1:100

- EC50 [1]: 0.0903 nM
- Maximum MFI [1]: 51800 MFI
- EC50 [2]: 1.24 nM
- Maximum MFI [2]: 824000 MFI
- EC50 [3]: 0.711 nM
- Maximum MFI [3]: 451000 MFI
- IC50 [4]: 1.39 nM
- Maximum inhibition rate (%) [4]: 102%
- IC50 [5]: 7.04 nM
- Maximum inhibition rate (%) [5]: 101%
- Kd [6]: 0.595 nM
- koff [6]: 2.93e-05 s⁻¹
- kon [6]: 49300 M⁻¹ s⁻¹
- Competitive inhibition rate (%) [7]: 106%
B1: PR003265 (antibody, human IgG1, kappa, V domains shown)
VH: QVQLVESGGGVVQPGRSLRLSCAASGFTFSTYGLHWVRQAPGKGLEWVAVIWYDESNEYYADSVKGRFTISRDNSKNTLYLQMNSLRAEDTALYYCARLAHDYGGTYFDYWGQGTLVTVSS
VL: EIVMTQSPAILSVSPGERATLSCRASQSISYNLAWYQQKPGQAPRLLIYGASIRATGIPARFSGSGSGTDFTLTISSLQSEDFAVYYCQQYNNWPPWTFGQGTKVEIKR
notes: Human IgG1; also called 78G8B3

- binding result [8]: binds
B2: PR004479 (antibody, human IgG1, kappa, L234A L235A, V domains shown)
VH: QVQLVESGGGVVQPGRSLRLSCAASGFTFSDYGIHWVRQAPGKGLEWVAVIWYEGSDKYYADSVRGRFTISRDNSKNTLSLQMNSLRVEDTAVYYCARDRSSGAMGYFVYWGQGTLVTVSS
VL: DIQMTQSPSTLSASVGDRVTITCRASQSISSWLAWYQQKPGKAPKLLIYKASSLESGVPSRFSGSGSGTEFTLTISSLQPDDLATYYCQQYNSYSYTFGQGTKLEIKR
notes: Variant of PR003249, H:D54E; Human IgG1 LALA; expressed supernatant only

- EC50 [1]: 0.00294 nM
- Maximum MFI [1]: 68800 MFI
- EC50 [2]: 0.995 nM
- Maximum MFI [2]: 823000 MFI
- EC50 [3]: 0.399 nM
- Maximum MFI [3]: 405000 MFI
- IC50 [4]: 1.41 nM
- Maximum inhibition rate (%) [4]: 101%
- IC50 [5]: 8.49 nM
- Maximum inhibition rate (%) [5]: 97.2%
- Kd [6]: 2.91 nM
- koff [6]: 0.000271 s⁻¹
- kon [6]: 93200 M⁻¹ s⁻¹
- Competitive inhibition rate (%) [7]: 103%
B3: PR003250 (antibody, human IgG1, kappa, V domains shown)
VH: B2 VH with E54D, V88A, V109A
VL: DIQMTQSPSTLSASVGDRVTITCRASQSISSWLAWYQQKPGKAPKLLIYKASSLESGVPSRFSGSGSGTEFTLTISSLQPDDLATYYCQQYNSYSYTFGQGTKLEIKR
notes: Human IgG1; also called 34G2E6

- EC50 [1]: 0.0399 nM
- Maximum MFI [1]: 68600 MFI
- EC50 [2]: 1.81 nM
- Maximum MFI [2]: 981000 MFI
- EC50 [3]: 8.51 nM
- Maximum MFI [3]: 698000 MFI
- IC50 [4]: 1.87 nM
- Maximum inhibition rate (%) [4]: 101%
- IC50 [5]: 12.9 nM
- Maximum inhibition rate (%) [5]: 99.3%
- Kd [6]: 1.6 nM
- koff [6]: 0.00014 s⁻¹
- kon [6]: 88000 M⁻¹ s⁻¹
- Competitive inhibition rate (%) [7]: 108%
B4: PR003248 (antibody, human IgG1, kappa, V domains shown)
VH: QVQLVESGGGVVQPGRSLRLSCAASGFTFSDYGLHWVRQAPGRGLEWVAVIWYDGSEEYYADSVKGRFTISRDNSKKSLYLQMNSLRAEDTAVYFCARDRNSGALGYFPHWGQGTLVTVSS
VL: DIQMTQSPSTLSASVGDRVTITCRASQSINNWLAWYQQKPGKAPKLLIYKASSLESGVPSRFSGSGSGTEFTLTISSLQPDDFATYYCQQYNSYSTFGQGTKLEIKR
notes: Human IgG1, fully human, from Harbour H2L2 mice; also called 13D8D2

- EC50 [1]: 0.0477 nM
- Maximum MFI [1]: 49300 MFI
- EC50 [2]: 0.663 nM
- Maximum MFI [2]: 531000 MFI
- EC50 [3]: 0.211 nM
- Maximum MFI [3]: 170000 MFI
- IC50 [4]: 1.57 nM
- Maximum inhibition rate (%) [4]: 101%
- IC50 [5]: 8.55 nM
- Maximum inhibition rate (%) [5]: 102%
- Kd [6]: 9.93 nM
- koff [6]: 0.000648 s⁻¹
- kon [6]: 65200 M⁻¹ s⁻¹
- Competitive inhibition rate (%) [7]: 107%
B5: PR003266 (antibody, human IgG1, kappa, V domains shown)
VH: B2 VH with I34M, V50I, E54D, D57N, R65K, S80Y, V88A, M105L, V109Q, Y110H
VL: not shown
notes: Human IgG1; also called 7D3D2

- EC50 [1]: 0.0445 nM
- Maximum MFI [1]: 60100 MFI
- EC50 [2]: 0.941 nM
- Maximum MFI [2]: 723000 MFI
- EC50 [3]: 0.326 nM
- Maximum MFI [3]: 275000 MFI
- IC50 [4]: 1.49 nM
- Maximum inhibition rate (%) [4]: 100%
- IC50 [5]: 7.5 nM
- Maximum inhibition rate (%) [5]: 105%
- Kd [6]: 4.6 nM
- koff [6]: 0.000336 s⁻¹
- kon [6]: 73000 M⁻¹ s⁻¹
- Competitive inhibition rate (%) [7]: 111%
B6: PR003261 (antibody, human IgG1, kappa, V domains shown)
VH: QVQLVESGGGVVQPGRSLRLSCAASGFTFSNYGMHWVRQAPGKGLEWVAVIWYDGTNKNYADSVKGRFTISRDNSKNTLDLQMNSLRAEDTAVYFCARDRNTAMDYFVYWGQGTLVTVSS
VL: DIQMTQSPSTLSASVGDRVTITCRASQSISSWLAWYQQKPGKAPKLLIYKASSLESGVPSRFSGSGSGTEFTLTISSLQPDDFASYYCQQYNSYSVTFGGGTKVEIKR
notes: Human IgG1; also called 74A11E4

- Maximum MFI [1]: 69400 MFI
- EC50 [2]: 1.04 nM
- Maximum MFI [2]: 837000 MFI
- EC50 [3]: 0.429 nM
- Maximum MFI [3]: 414000 MFI
- IC50 [4]: 1.43 nM
- Maximum inhibition rate (%) [4]: 101%
- IC50 [5]: 7.59 nM
- Maximum inhibition rate (%) [5]: 97.1%
- Kd [6]: 1.06 nM
- koff [6]: 0.000132 s⁻¹
- kon [6]: 125000 M⁻¹ s⁻¹
- Competitive inhibition rate (%) [7]: 107%
B7: PR003252 (antibody, human IgG1, kappa, V domains shown)
VH: QVQLVESGGGVVQPGRSLRLSCAASGFTFSNYAMHWVRQVPGKGLEWVALIWYDGSEKYYADSVKGRFTISRDDSKNTLFLQMSSLRAEDTAVYSCVREYSSGWGYFDYWGQGTQVTVSS
VL: DIQMTQSPSTLSASVGDRVTITCRASQSISSWLAWYQQKPGKAPKLLIYKASSLKSGVPSRFSGSGSGTEFTLTISSLQPDDFATYYCLQYNSYYTFGQGTKLEIKR
notes: Human IgG1; also called 53C12D4
